Test results: patent WO2018178074A1 (dated 2018)

Experiments:
human FAP on cells = biological target: T1, human FAP on cells (human, UniProt Q12884 1-760); experiment: flow cytometry on NIH/3T3-huFAP clone 39 cells
T1 construct: Natural FAP of the melanoma line WM266-4, or human FAP from vector pETR4921 in NIH/3T3 cells; also called huFAP on WM266-4 cells; human FAP on NIH/3T3-huFAP clone 39 cells

human 4-1BB on cells = biological target: T2, human 4-1BB on cells (human, UniProt Q07011 24-255); experiment: flow cytometry on activated human PBMC (legend of Figure 14)
T2 construct: also called human 4-1BB on NF-kB-luciferase human-4-1BB HeLa clone 26 cells

[1] = biological target: T3, human FAP (soluble, second analyte in SPR) (human, UniProt Q12884 26-760); experiment: SPR Biacore T200, biotinylated human 4-1BB Fc(kih) on SA chip, construct 200 nM, then human FAP 500 nM
T3 construct: also called human FAP protein

T2 sequence (Q07011 24-255 limits assumed): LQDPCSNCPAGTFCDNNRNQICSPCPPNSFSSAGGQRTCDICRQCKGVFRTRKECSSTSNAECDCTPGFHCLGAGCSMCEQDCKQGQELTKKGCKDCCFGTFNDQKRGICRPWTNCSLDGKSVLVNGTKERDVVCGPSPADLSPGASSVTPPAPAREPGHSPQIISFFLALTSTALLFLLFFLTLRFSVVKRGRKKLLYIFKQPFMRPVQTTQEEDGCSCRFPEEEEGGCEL

Binder | binding result (human FAP on cells) | binding result (human 4-1BB on cells) | binding result [1]
12B3 huIgG1 P329G LALA (antibody, V domains shown, Human IgG1 with Pro329Gly, Leu234Ala, Leu235Ala; also called 12B3 hulgGI P329G LALA; parental huIgG1 P329G LALA 12B3) VH: QVQLVQSGAEVKKPGSSVKVSCKASGGTFSSYAISWVRQAPGQGLEWMGGIIPIFGTANYAQKFQGRVTITADKSTSTAYMELSSLRSEDTAVYYCARSEFRFYADFDYWGQGTTVTVSS VL: not shown | no binding |  | 
25G7 x FAP 3+3 (bispecific antibody, Trimer of three CMP chains, each paired with an anti-4-1BB light chain; no Fc; also called 3+3 25G7/28H1) not shown light: SSELTQDPAVSVALGQTVRITCQGDSLRSYYASWYQQKPGQAPVLVIYGKNNRPSGIPDRFSGSSSGNTASLTITGAQAEDEADYYCNSLDRRGMWVFGGGTKLTVRTVAAPSVFIFPPSDEQLKSGTASVVCLLNNFYPREAKVQWKVDNALQSGNSQESVTEQDSKDSTYSLSSTLTLSKADYEKHKVYACEVTHQGLSSPVTKSFNRGEC | binds | binds | binds
25G7 huIgG1 P329G LALA (antibody, V domains shown, Human IgG1 with Pro329Gly, Leu234Ala, Leu235Ala; also called 25G7 hulgGI P329G LALA; parental huIgG1 P329G LALA 25G7) VH: not shown VL: SSELTQDPAVSVALGQTVRITCQGDSLRSYYASWYQQKPGQAPVLVIYGKNNRPSGIPDRFSGSSSGNTASLTITGAQAEDEADYYCNSLDRRGMWVFGGGTKLTVLG | no binding |  | 
